Substitutions are numbered along the chain they refer to.
What was measured:
Test in all cases: SPR, KD relative to WT C2;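 note: biacore SPR at 37 °C, anti-C2 mAbs captured via immobilised goat anti-human IgG, C2 alanine or serine surface mutants as analytes, 1:1 model fitted, double-referenced sensograms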
[1] = molecular target: T1, human C2 N703A (human, UniProt P06681 21-752)
T1 sequence: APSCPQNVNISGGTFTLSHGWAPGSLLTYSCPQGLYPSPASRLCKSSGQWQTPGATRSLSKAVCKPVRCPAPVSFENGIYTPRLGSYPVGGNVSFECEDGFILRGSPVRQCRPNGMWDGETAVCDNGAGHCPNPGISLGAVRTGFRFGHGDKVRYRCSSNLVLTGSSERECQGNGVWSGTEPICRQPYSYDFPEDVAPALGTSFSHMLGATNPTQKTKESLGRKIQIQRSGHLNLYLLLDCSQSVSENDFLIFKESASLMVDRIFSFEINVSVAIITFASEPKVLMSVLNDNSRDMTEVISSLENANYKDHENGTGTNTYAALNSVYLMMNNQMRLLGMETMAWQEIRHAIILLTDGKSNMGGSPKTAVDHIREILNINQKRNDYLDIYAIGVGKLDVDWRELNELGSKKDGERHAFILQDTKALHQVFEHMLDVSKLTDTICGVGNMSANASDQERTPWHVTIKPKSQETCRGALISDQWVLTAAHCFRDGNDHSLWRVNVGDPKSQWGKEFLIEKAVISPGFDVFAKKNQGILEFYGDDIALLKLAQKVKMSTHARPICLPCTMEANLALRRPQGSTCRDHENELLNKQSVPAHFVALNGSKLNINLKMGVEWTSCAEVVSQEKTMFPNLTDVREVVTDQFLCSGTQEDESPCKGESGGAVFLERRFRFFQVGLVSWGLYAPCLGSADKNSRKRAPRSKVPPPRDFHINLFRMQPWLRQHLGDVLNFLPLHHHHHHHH

[2] = molecular target: T2, human C2 L279A (human, UniProt P06681 21-752)
T2 sequence: T1 sequence with L259A, A683N

[3] = molecular target: T3, human C2 S428A (human, UniProt P06681 21-752)
T3 sequence: T1 sequence with S408A, A683N

[4] = molecular target: T4, human C2 K550A (human, UniProt P06681 21-752)
T4 sequence: T1 sequence with K530A, A683N

B1: RF16-226 (antibody, human IgG4 S228P, lambda)
heavy: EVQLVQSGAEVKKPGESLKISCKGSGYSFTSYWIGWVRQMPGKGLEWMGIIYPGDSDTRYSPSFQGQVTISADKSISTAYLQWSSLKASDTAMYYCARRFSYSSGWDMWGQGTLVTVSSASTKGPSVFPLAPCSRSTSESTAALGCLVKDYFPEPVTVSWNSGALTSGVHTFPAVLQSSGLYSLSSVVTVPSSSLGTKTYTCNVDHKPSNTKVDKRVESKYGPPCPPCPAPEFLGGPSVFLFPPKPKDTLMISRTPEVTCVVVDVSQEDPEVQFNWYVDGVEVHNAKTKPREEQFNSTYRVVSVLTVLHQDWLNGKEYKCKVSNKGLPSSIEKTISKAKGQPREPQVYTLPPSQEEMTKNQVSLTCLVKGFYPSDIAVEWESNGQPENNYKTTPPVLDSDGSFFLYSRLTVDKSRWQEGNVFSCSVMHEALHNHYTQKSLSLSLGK
light: SYELTQPPSVSVSPGQTARITCSGDALTSKYVAWYQQKSGLAPLLVIYEDTRRPSGIPAKFSGSSSGSVATLTISGAHGDDEADYYCYSTDASGHQRVFGGGTKLTVLSQPKAAPSVTLFPPSSEELQANKATLVCLISDFYPGAVTVAWKADGSPVKAGVETTKPSKQSNNKYAASSYLSLTPEQWKSHRSYSCQVTHEGSTVEKTVAPTECS
notes: pH-dependent anti-C2 antibody from a phage display library; also called WT
For B1, the Fold diff [1] was 29 fold, the Fold diff [2] was 5 fold and the Fold diff [3] was 2 fold. The Fold diff [4] was 1 fold.

From patent publication US20220332804A1 (CSL INNOVATION, published 2022)
